From patent US20230192818A1 (TWIST BIOSCIENCE, published 2023) come the findings set out here.

Assay [1] deals with T1, SARS-CoV-2 S1 (Acro) (SARS-CoV-2, UniProt P0DTC2 16-685).
T1 construct: also called Acro S1
Nature of the assay: SPR (Carterra).

Assay [2] concerns the target T1, SARS-CoV-2 S1 (Acro). The assay is described as follows: SPR (Carterra). The source holds these as a separate data set.

Read-outs that look alike come from different tables or passages of the source.

B1: 15-3 (Fc fusion)
chain: EVQLVESGGGLVQPGGSLRLSCAASGFTFSPSWMGWFRQAPGKEREFVATINEYGGRNYADSVKGRFTISADNSKNTAYLQMNSLKPEDTAVYYCARVDRDFDYWGQGTLVTVSS
notes: also called Antibody 15-3; Antibody 15 parent
For orientation: Kd means a measure of binding affinity in units of concentration. The low end stands for tighter binding, the high end for weaker binding. As to B1, the Kd in the assay with SARS-CoV-2 S1 (Acro) [1] amounted to 31.5 nM.

B2: 3-31 (Fc fusion)
chain: EVQLVESGGGLVQPGGSLRLSCAASGSTFSINAMGWFRQAPGKEREFVAGITSSGGYTNYADSVKGRFTISADNSKNTAYLQMNSLKPEDTAVYYCAADGVPEYSDYASGPVWGQGTLVTVSS
notes: also called Antibody 3-31
For B2, the Kd with SARS-CoV-2 S1 (Acro) [2] and with SARS-CoV-2 S1 (Acro) [1] was 21 nM throughout.
